Data on one substance can be found in patent US6299877.

Assay [1] addresses IFN-αR1 (IFNAR1), type I interferon receptor subunit on cells (human) (UniProt P17181).
Assay [2] addresses IFN-αR2 (IFNAR2), type I interferon receptor subunit on cells (human) (UniProt P48551).

In the case of “Histidine (His)-tagged IFN-ε (IFN-ε^His), recombinant, expressed in E. coli (ligand)”, the growth inhibition of Daudi cells, IC50 in assay [1] and in assay [2] was 100 µM in each case.
